Legend:
[1] = target: T1, human PSMA on prostate cancer cell lines (22RV1, C4-2B) (human, UniProt Q04609 1-750); test: flow cytometry on C4-2B cells
T1 construct: also called PSMA-expressing cell lines
In short: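 22RV1 and C4-2B prostate cancer cells (50,000/well, RPMI/10% HI FBS) incubated 60 min at 37 °C with serially diluted antibodies. After washes, bound antibody detected with 2 μg/ml AlexaFluor647 goat anti-human Fc, 30 min at 4 °C, by flow cytometry.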

[2] = target: T1, human PSMA on prostate cancer cell …; test: flow cytometry on 22RV1 cells; 22RV1 cells
Protocol: 22RV1 and C4-2B cells were plated at 50,000 cells per well in 50 μl of assay medium (RPMI, 10% HI FBS) in V bottom plates. Serial dilutions of antibodies were prepared in assay medium with 50 μl of antibody dilutions added to the plates containing cells. The plates were incubated for 60 min at 37° C. at which time 100 μl of staining buffer (Becton Dickinson Cat #554657) was added to all wells of each plate. The plates were centrifuged at 300×G for 5 minutes and the medium was removed from the wells. 200 μl of staining buffer was added to all wells of each plate. The plates were centrifuged at 300× G for 5 minutes and the medium was removed from the wells. 50 μl of 2 μg/ml AlexaFluor647-labeled goat anti-human Fc was added to all wells of the plates and the plates were incubated for 30 minutes at 4° C. 150 μl of staining buffer was added to all wells of each plate. The plates were centrifuged at 300× G for 5 minutes and the medium was removed from the wells.

T1 sequence (Q04609 whole entry): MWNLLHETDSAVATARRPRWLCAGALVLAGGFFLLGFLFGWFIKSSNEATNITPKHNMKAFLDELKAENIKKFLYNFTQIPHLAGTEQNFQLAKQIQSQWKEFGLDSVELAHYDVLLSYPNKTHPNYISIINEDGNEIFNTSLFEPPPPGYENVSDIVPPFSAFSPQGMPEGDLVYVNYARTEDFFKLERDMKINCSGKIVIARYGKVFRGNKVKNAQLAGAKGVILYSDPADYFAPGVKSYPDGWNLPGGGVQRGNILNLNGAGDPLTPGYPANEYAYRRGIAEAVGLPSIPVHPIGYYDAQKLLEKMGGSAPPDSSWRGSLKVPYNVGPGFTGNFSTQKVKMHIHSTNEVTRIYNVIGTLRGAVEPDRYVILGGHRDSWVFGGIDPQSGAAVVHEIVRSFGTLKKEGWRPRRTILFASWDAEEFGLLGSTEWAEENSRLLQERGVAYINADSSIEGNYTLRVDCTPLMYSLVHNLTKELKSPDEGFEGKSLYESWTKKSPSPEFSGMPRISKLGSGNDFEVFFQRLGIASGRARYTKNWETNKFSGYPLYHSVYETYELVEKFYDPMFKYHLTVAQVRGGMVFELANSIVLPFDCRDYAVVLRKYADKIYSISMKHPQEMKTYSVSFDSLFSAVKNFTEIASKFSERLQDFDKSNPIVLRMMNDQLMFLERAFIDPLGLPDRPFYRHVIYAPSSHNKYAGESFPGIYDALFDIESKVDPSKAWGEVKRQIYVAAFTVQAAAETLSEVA

EC50 [1]: 60 nM
EC50 [2]: ≥ 60 nM
B1: PS3B918 (bispecific antibody, human IgG1, lambda, L234A L235A)
heavy 1: QVQLQQSGPRLVRPSQTLSLTCAISGDSVFNNNAAWSWIRQSPSRGLEWLGRTYYRSKWLYDYAVSVKSRITVNPDTSRNQFTLQLNSVTPEDTALYYCARGYSSSFDYWGQGTLVTVSSASTKGPSVFPLAPSSKSTSGGTAALGCLVKDYFPEPVTVSWNSGALTSGVHTFPAVLQSSGLYSLSSVVTVPSSSLGTQTYICNVNHKPSNTKVDKKVEPKSCDKTHTCPPCPAPEAAGGPSVFLFPPKPKDTLMISRTPEVTCVVVSVSHEDPEVKFNWYVDGVEVHNAKTKPREEQYNSTYRVVSVLTVLHQDWLNGKEYKCKVSNKALPAPIEKTISKAKGQPREPQVYTLPPSREEMTKNQVSLTCLVKGFYPSDIAVEWESNGQPENNYKTTPPVLDSDGSFLLYSKLTVDKSRWQQGNVFSCSVMHEALHNHYTQKSLSLSPG
light 1: QSALTQPASVSGSPGQSITISCTGTSSNIGTYKFVSWYQQHPDKAPKVLLYEVSKRPSGVSSRFSGSKSGNTASLTISGLQAEDQADYHCVSYAGSGTLLFGGGTKLTVLGQPKAAPSVTLFPPSSEELQANKATLVCLISDFYPGAVTVAWKADSSPVKAGVETTTPSKQSNNKYAASSYLSLTPEQWKSHRSYSCQVTHEGSTVEKTVAPTECS
heavy 2: EVQLVESGGGLVKPGGSLRLSCAASGFTFSRYNMNWVRQAPGKGLEWVSSINSNSRYIYYADSVKGRFTISRDSAKNSLYLQMNSLRAEDTAVYYCAKTMGDYYYYYGMDVWGQGTTVTVSSASTKGPSVFPLAPSSKSTSGGTAALGCLVKDYFPEPVTVSWNSGALTSGVHTFPAVLQSSGLYSLSSVVTVPSSSLGTQTYICNVNHKPSNTKVDKKVEPKSCDKTHTCPPCPAPEAAGGPSVFLFPPKPKDTLMISRTPEVTCVVVSVSHEDPEVKFNWYVDGVEVHNAKTKPREEQYNSTYRVVSVLTVLHQDWLNGKEYKCKVSNKALPAPIEKTISKAKGQPREPQVYTLPPSREEMTKNQVSLTCLVKGFYPSDIAVEWESNGQPENNYKTTPPVLDSDGSFFLYSRLTVDKSRWQQGNVFSCSVMHEALHNHYTQKSLSLSPG
light 2: SSELTQPPSVSGAPGQRVTISCAGSLSNIGAGYDVHWYQQLPGTAPKLLIYGNINRLSGVPERFSGSKSGTSASLAITGLQAEDGADYYCQSYDSSLSSYVFGTGTKVTVLGQPKAAPSVTLFPPSSEELQANKATLVCLISDFYPGAVTVAWKADSSPVKAGVETTTPSKQSNNKYAASSYLSLTPEQWKSHRSYSCQVTHEGSTVEKTVAPTECS
notes: FAB-A: CD3B891 (CD3B376 - K477); FAB-B: PSMB890

From patent publication US20250145711A1 (Janssen / Centocor, published 2025)
